These results are taken from article PMC3411929 (Journal of structural biology, 2012).

The data set deals with the molecule itself. The data set is described as follows: SEC. In general terms: Size exclusion chromatography separates by hydrodynamic size, large species first.

B1: human spastin amino acids 228-616 containing the E442Q mutation (domain or fragment, UniProt Q9UBP0 228-616, looked up)
chain: ESGAVPKRKDPLTHTSNSLPRSKTVMKTGSAGLSGHHRAPSYSGLSMVSGVKQGSGPAPTTHKGTPKTNRTNKPSTPTTATRKKKDLKNFRNVDSNLANLIMNEIVDNGTAVKFDDIAGQDLAKQALQEIVILPSLRPELFTGLRAPARGLLLFGPPGNGKTMLAKAVAAESNATFFNISAASLTSKYVGEGEKLVRALFAVARELQPSIIFIDQVDSLLCERREGEHDASRRLKTEFLIEFDGVQSAGDDRVLVMGATNRPQELDEAVLRRFIKRVYVSLPNEETRLLLLKNLLCKQGSPLTQKELAQLARMTDGYSGSDLTALAKDAALGPIRELKPEQVKNMSASEMRNIRLSDFTESLKKIKRSVSPQTLEAYIRWNKDFGDTTV
As usually defined, the stoichiometry N is the number of molecules, sites or subunits per partner or assembly. For B1, the “stoichiometry N” value stood at 6.
